B1: soluble TRAIL: recombinant TRAIL, an inducer of apoptosis and a cancer therapeutic (protein, UniProt P50591 39-281, looked up)
extracellular domain: TNELKQMQDKYSKSGIACFLKEDDSYWDPNDEESMNSPCWQVKWQLRQLVRKMILRTSEETISTVQEKQQNISPLVRERGPQRVAAHITGTRGRSNTLSSPNSKNEKALGRKINSWESSRSGHSFLSNLHLRNGELVIHEKGFYYIYSQTYFRFQEEIKENTKNDKQMVQYIYKYTSYPDPILLMKSARNSCWSKDAEYGLYSIYQGGIFELKENDRIFVSVTNEHLIDMDHEASFFGAFLVG
modifications: extracellular domain
notes: recombinant TRAIL, an inducer of apoptosis and a cancer therapeutic

What was measured:
[1] = tested on: gamma secretase; test: Chimeric Notch receiver cell activation by CD19 sender cells with or without gamma secretase inhibitor DAPT; type: cell-based, mouse; conditions: sender cells expressing CD19, 1 mM DAPT
Source text: DAPT is a gamma secretase inhibitor. The data are expressed as GFP^+ “receiver” cells.
(FIG. 86A) Mouse fibroblasts (L929 line) with anti-CD19/tTA synNotch are cultivated with sender cells expressing Delta, or CD19, or CD19 in the presence of the gamma-secretase inhibitor DAPT. FACS plots of the resulting GFP intensity in receiver cells are shown.

[2] = tested on: HCT116 colon cancer cells; test: Sensitivity of cancer cell line to recombinant TRAIL; type: cell-based
Method: (§1) The cells were then harvested and stained with the live/dead stain, SYTOX Blue (Thermo Scientific # S34857) and the fraction of dead cells was determined by flow cytometry on a BD LSR II.

[3] = tested on: K562 cells; test: as above; type: cell-based
Method: as §1

| Molecule | GFP+ receiver cells [1] | cell killing [2] | induction of apoptosis [3] |
| --- | --- | --- | --- |
| C[C@H](NC(=O)Cc1cc(F)cc(F)c1)C(=O)NC(C(=O)OC(C)(C)C)c1ccccc1 (stereo partly drawn) [DAPT] | at control, untreated levels | – | – |
| B1 | – | effective at killing | does not induce apoptosis even at high doses |

— patent US10590182B2, “Binding-triggered transcriptional switches and methods of use thereof” (The Regents of the University of California, priority 2015, dated 2020)
